The numbers were not newly measured in US11358994B2, “Fatty acid modified human epidermal growth factor” (Saint Louis University, priority 2017, dated 2022), which cites them from elsewhere.

The conditions of this data set: species not stated.

As for “hEGF: 6 kD protein made of 53 amino acids (SEQ ID NO: 1)”, the half-life in vivo is around 2 min.
